Assay results: patent publication US7135457

What was measured:
[1] = target: T1, human D2H transporter receptor domain, amino acid residues 387-685, His-tag fusion protein (human), Q07837; test: phage ELISA, OD on D2H over OD on BSA
T1 chain: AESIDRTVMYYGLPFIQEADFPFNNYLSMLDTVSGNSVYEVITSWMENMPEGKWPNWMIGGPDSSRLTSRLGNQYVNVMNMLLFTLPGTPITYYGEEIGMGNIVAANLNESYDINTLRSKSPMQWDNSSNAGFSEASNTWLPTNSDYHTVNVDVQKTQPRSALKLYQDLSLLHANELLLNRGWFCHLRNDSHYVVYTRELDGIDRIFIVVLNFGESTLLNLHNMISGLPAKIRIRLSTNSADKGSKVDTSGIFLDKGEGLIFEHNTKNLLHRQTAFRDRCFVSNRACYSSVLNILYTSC

[2] = target: T1, human D2H transporter receptor domain, …; test: phage ELISA, coated D2H domain
[3] = target: T2, human sucrase-isomaltase complex (hSI) receptor domain, amino acid residues 272-667, His-tag fusion protein (human), P14410; test: phage ELISA, OD on hSI over OD on BSA
[4] = target: T2, human sucrase-isomaltase complex (hSI) …; test: phage ELISA, coated hSI domain

T2 sequence (P14410 272-667, one chain of several): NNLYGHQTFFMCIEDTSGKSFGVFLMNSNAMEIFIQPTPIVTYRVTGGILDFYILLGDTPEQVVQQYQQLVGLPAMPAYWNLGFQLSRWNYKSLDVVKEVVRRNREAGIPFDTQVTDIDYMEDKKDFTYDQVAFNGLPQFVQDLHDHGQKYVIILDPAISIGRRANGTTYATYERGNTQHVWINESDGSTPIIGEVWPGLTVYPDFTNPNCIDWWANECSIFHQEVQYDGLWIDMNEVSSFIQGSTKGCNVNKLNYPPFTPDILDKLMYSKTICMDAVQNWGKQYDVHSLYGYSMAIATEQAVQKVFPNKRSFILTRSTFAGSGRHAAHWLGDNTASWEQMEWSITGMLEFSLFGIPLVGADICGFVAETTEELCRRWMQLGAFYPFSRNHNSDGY

## SWSSWNWSSKTTRLGDRATREGCGPSQSDGCPYNGRLTTVKPRT (modifications not checked) [phage DCX36]
[1]
  D2H/BSA: 5
[2]
  OD: 0.293 OD 650 nm

## SPRSFWPVVSRHESFGISNYLGCGYRTCISGTMTKSSPIYPRHS (modifications not checked) [phage S21]
[3]
  hSI/BSA: 9
[4]
  OD: 0.845 OD 650 nm
